Data reported in patent US7704737B2, “Oligodendrocyte production from multipotent neural stem cells” (Stem Cell Therapeutics Inc., priority 2002, dated 2010).
Entries after “also recorded” stand apart in the source; their conditions may differ.

What was measured:
[1] = system: neural stem cells; experiment: rapid differentiation protocol of neural stem cells, immunostaining for O4, GalC and MBP; assay type: cell-based, mouse; conditions: for % positive cells, GalC / % positive cells, MBP / % positive cells, O4: 20 ng/ml factor in MHM
Description: To determine the effect of GM-CSF on neural stem cell differentiation, a culture of neural stein cells was prepared from mouse embryos and subjected to a rapid differentiation protocol. Embryonic Day 14 (E14) mouse ganglionic eminence was dissected and grown in media hormone mix (MHM) plus 20 ng/ml epidermal growth factor (EGF) for one week to generate primary neurospheres. The composition of MHM was as follows: • DMEM/F12 (1:1) • glucose (0.6%) • glutamine (2 mM) • sodium bicarbonate ([…]) • HEPES (5 mM) • insulin (25 μg/ml • transferrin (100 μg/ml) • progesterone (20 nM) • putrescine (60 μM) • selenium chloride (30 nM)
Primary neurospheres were then dissociated and plated on poly-L-ornithine coated coverslips in 24-well plates at a density of 200,000 cells/ml in 1 ml of MHM per well. Cells were allowed to differentiate in the absence or presence of 20 ng/ml GM-CSF (murine recombinant GM-CSF, Peprotech) in MHM or 20 ng/ml of triiodothyronine (T3, Sigma) in MHM, or in a combination of both GM-CSF and T3. T3 is a known oligodendrocyte differentiation factor, which was used to compare GM-CSF in these experiments.
After 1, 3 or 5 days, the cells were fixed with 4% paraformaldehyde. […] After staining, the numbers of O4-positive, GalC-positive and MBP-positive cells were counted. The total number of cells were determined using Hoechst staining and live nuclei morphology under 40× magnification. This experiment was performed four times, and 10 non-overlapping fields per coverslip were counted each time. Statistical analyses of the results were performed using Anova with a Tukey-Honest post-hocs analysis.

[2] = system: maturing oligodendrocytes; experiment: dying maturing oligodendrocytes (GalC+, TUNEL+ cells); assay type: cell-based, mouse; conditions: 1, 3 or 5 days in differentiation media, FIG. 2
Description: The survival effects of GM-CSF on oligodendrocytes were examined with two lines of experiments. In the first line of experiments, neural stem cells were cultured as described in Example 1 in the presence or absence of GM-CSF or T3, and were fixed after 1, 3 or 5 days of culture in differentiation media. The fixed cells were immunostained for the maturing oligodendrocyte marker GalC and TUNEL, which is a marker of dying cells. The numbers of dicing, maturing oligodendrocytes (GalC+, TUNEL+cells) were then counted and their percentage in total GalC+cells are shown in FIG. 2.

[3] = system: differentiating neural stem cells; experiment: Survival Assay: factor added or removed at different times, MBP staining; assay type: cell-based, mouse; set-up: MBP + cells after 5DIV: unit not given here; conditions: for dependence of oligodendrocyte numbers on length of time the factor is present: summary of Table 2, MBP after 5 DIV
Description: In the second line of experiments, GM-CSF ,as given to differentiating neural stem cells at different times. Thus, neural stem cell culture was placed in differentiation media as described in Example 1, and GM-CSF was added after 24 or 48 hours, or added in the beginning but removed after 24 or 48 hours. Similarly, T3 was added or removed in the same manner in parallel experiments. The cells were fixed after 5 days in vitro and immunostained with the mature oligodendrocyte marker MBP.

[4] = system: E14 ganglionic eminence cells; experiment: total cell number of primary neural stem cell culture; assay type: cell-based, mouse; conditions: MHM plus EGF plus factor, 1 week, versus MHM plus EGF, FIG. 3
Description: To assess the effect of GM-CSF on proliferation of neural stem cells, the number of cells generated in neurosphere cultures, prepared according to Example 1, was counted when grown for 1 week in various culture media. Thus, E14 ganglionic eminence cells were grown at a density of 200,000 cells/ml in 40 ml of media for 1 week. The media were MHM plus EGF, MHM plus EGF and GM-CSF, or MHM plus EGF and T3. Spheres were then collected, dissociated and cells were counted with a hemacytometer. The cell numbers were calculated as percentages of the control (MHM plus EGF).

[5] = system: E14 mouse ganglionic eminence cells; experiment: primary neurosphere numbers; assay type: cell-based; conditions: MHM plus EGF plus factor, 20 ng/ml, 1 week, FIG. 4
Description: The effect of GM-CSF on primary neurosphere numbers was also examined by growing cells from E14 mouse ganglionic eminence in MHM plus EGF, MHM plus EGF plus GM-CSF, or MHM plus EGF plus T3, all at concentrations of 20 ng/ml. Thus, E14 mouse ganglionic eminence cells were dissociated and plated in 96well plates at a density of 10,000 cells/ml in 200 μl of media per well, and allowed to form primary neurospheres for a week. The number of primary spheres in each well as then counted and the aforementioned statistical analysis as performed.

[6] = system: EGF-responsive neural stem cells; experiment: secondary neurosphere numbers (self-expansion); assay type: cell-based, mouse; conditions: FIG. 5; for number of secondary neurospheres: factor in secondary neurosphere media, primary spheres grown in EGF; for formation of secondary spheres: factor included in the media for primary neurospheres
Description: Furthermore, the effect of GM-CSF on self-expansion, proliferation of secondary neurospheres derived from primary neurospheres, was also assessed. Three media were used in the preparation of primary spheres: MHM plus EGF, MHM plus EGF plus GM-CSF and MHM plus EGF plus T3. The primary, spheres were dissociated, plated in 96-well plates at a concentration of 1000 cells/well in 200μL media per well, and allowed to form secondary neurospheres for a week. The media for secondary cultures consisted of MHM plus EGF alone, MHM plus GM-CSF or T3 alone, or MHM plus EGF supplemented with GM-CSF or T3. The number of secondary spheres in each well was then counted, calculated as percentage of control (EGF to EGF).

[7] = system: neural stem cells; experiment: fate determination analysis (MBP+ and β-tubulin+ cells); assay type: cell-based, mouse; conditions: primary spheres generated in EGF plus factor, differentiated 5 days, FIG. 6
Description: To determine if the presence of GM-CSF during primary neurosphere formation impacts fate determination of neural stem cells, primary neurospheres were generated in either EGF alone, EGF plus GM-CSF, or EGF plus T3 as described in Example 3. The primary spheres were then dissociated and plated on poly-L-ornithine coated coverslips in 24-well plates at a density of 200,000 cells/well in 1 ml of MHM per well, and allowed to differentiate for 5 days. At the end the differentiation period, the cells were fixed with 4% paraformaldehyde and immunostained for the mature oligodendrocyte marker MBP, the neuronal marker β-tubulin, and Hoechst. The total number of live cells, evidenced by Hoechst stain, were counted as well as the immunostained cells.

[8] = target: T1, GM-CSF (Mus musculus, UniProt P01587); experiment: rapid differentiation protocol with GM-CSF with or without soluble GM-CSF receptor alpha; assay type: cell-based; conditions: 100-fold excess of sGMRa, 5 days in vitro, FIG. 1
T1 construct: purchased Peprotech
T1 sequence (P01587 18-141): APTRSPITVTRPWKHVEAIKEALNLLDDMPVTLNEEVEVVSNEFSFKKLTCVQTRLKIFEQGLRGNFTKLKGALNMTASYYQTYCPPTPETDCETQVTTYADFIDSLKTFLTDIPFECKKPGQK
Description: A rapid differentiation protocol was performed, as described above, in the absence or presence of GM-CSF, with or without a 100-fold excess of sGMRa. After 5 days in vitro, the cells were fixed, immunostained with the mature oligodendrocyte marker MBP and counted as previously described.

[9] = McLay et al., 1997; cited from earlier work
[10] = immature oligodendrocyte marker O4, 1 DIV
[11] = mature oligodendrocyte marker MBP, 1 DIV
[12] = maturing oligodendrocyte marker GalC, 1 DIV

Molecule | % positive cells, GalC ([1]; GalC, 3 DIV) | % positive cells, GalC ([1]; GalC, 5 DIV) | % positive cells, MBP ([1]; MBP, 3 DIV) | % positive cells, MBP ([1]; MBP, 5 DIV) | % positive cells, O4 ([1]; O4, 3 DIV) | % positive cells, O4 ([1]; O4, 5 DIV) | % positive cells, O4 [1, 10] | % positive cells, MBP [1, 11] | % positive cells, GalC [1, 12] | number of dying GalC+ cells (GalC+, TUNEL+ in total GalC+ cells) [2] | MBP + cells after 5DIV ([3]; factor added after 24 hours) | MBP + cells after 5DIV ([3]; factor added after 48 hours) | MBP + cells after 5DIV ([3]; factor present for 5 DIV) | MBP + cells after 5DIV ([3]; factor removed after 24 hours) | MBP + cells after 5DIV ([3]; factor removed after 48 hours) | dependence of oligodendrocyte numbers on length of time the factor is present [3] | total cell number in the neural stem cell culture [4] | ability of neural stem cells to form primary neurospheres [5] | number of secondary neurospheres [6] | formation of secondary spheres [6] | other results
N[C@@H](Cc1cc(I)c(Oc2ccc(O)c(I)c2)c(I)c1)C(=O)O [T3, triiodothyronine, reference compound] | 15.3 ± 1.5 % | 11.1 ± 0.9 % | 13.9 ± 1.1 % | 17.2 ± 1.6 % | 35.9 ± 1.7 % | 19.9 ± 1.5 % | 18.2 ± 1.2 % | 1.6 ± 0.4% | 8.0 ± 0.8 % | only minor survival effects, if any | 14.8 ± 1.5 | 12.0 ± 1.1 | 13.9 ± 1.1 | 15.5 ± 1.1 | 13.8 ± 1.1 | did not chance regardless of the length of time | reduces | neither GM-CSF nor T3 have significant effects | decreased | detrimental | number of mature oligodendrocytes (MBP+ cells) [7]: increased; number of neurons (β-tubulin+ cells) [7]: decreased
sGMRa: GM-CSF receptor alpha (sGMRa), a soluble factor that binds GM-CSF (protein, UniProt P15509 23-320, looked up, extracellular domain) extracellular domain: EKSDLRTVAPASSLNVRFDSRTMNLSWDCQENTTFSKCFLTDKKNRVVEPRLSNNECSCTFREICLHEGVTFEVHVNTSQRGFQQKLLYPNSGREGTAAQNFSCFIYNADLMNCTWARGPTAPRDVQYFLYIRNSKRRREIRCPYYIQDSGTHVGCHLDNLSGLTSRNYFLVNGTSREIGIQFFDSLLDTKKIERFNPPSNVTVRCNTTHCLVRWKQPRTYQKLSYLDFQYQLDVHRKNTQPGTENLLINVSGDLENRYNFPSSEPRAKHSVKIRAADVRILNWSSWSEAIEFGSDDG | – | – | – | – | – | – | – | – | – | – | – | – | – | – | – | – | – | – | – | – | effect of GM-CSF on MBP+ cells [8]: specifically inhibited
GM-CSF: murine recombinant GM-CSF, Peprotech (protein, UniProt P01587 18-141, looked up) Granulocyte-macrophage …: APTRSPITVTRPWKHVEAIKEALNLLDDMPVTLNEEVEVVSNEFSFKKLTCVQTRLKIFEQGLRGNFTKLKGALNMTASYYQTYCPPTPETDCETQVTTYADFIDSLKTFLTDIPFECKKPGQK | 7.4 ± 0.8% | 7.9 ± 1.0 % | 8.1 ± 0.9 % | 12.2 ± 1.3 % | 25.7 ± 1.5% | 9.6 ± 1.0% | 16.6 ± 1.2 % | 1.2 ± 0.3% | 4.1 ± 0.6% | significantly reduced | 8.1 ± 0.9 | 3.9 ± 0.6 | 8.0 ± 0.8 | 5.4 ± 1.0 | 9.7 ± 1.0 | required for an extended period of time | slightly increased | neither GM-CSF nor T3 have significant effects | does not significantly affect | detrimental | percentage of oligodendrocytes produced from neural stem cells ([1]; every stage of oligodendrocyte development, versus control): significantly increased; also recorded: increased by several folds; number of mature oligodendrocytes (MBP+ cells) [7]: increased; number of neurons (β-tubulin+ cells) [7]: decreased; crossing the blood-brain barrier [9]: capable of crossing the blood-brain barrier
